Measured values taken from patent US20220313780A1, “METHODS AND COMPOSITIONS FOR TREATING INFLAMMATORY CONDITIONS” (THE SCRIPPS RESEARCH INSTITUTE, priority 2019, published 2022).

How the values were obtained:
EPCR = target: T1, EPCR (Homo sapiens, UniProt Q9UNN8); test: Caspase 1 activity assay in THP1 cells after blocking EPCR with antibody RCR-252; type: cell-based; conditions: RCR-252 50 μg/mL before APC 4 μg/mL, TR47 50 μM or P3R 50 μM
T1 construct: endogenous in cells; host or cells: THP1-null (wildtype) cells, PMA-differentiated
T1 sequence (Q9UNN8 18-238): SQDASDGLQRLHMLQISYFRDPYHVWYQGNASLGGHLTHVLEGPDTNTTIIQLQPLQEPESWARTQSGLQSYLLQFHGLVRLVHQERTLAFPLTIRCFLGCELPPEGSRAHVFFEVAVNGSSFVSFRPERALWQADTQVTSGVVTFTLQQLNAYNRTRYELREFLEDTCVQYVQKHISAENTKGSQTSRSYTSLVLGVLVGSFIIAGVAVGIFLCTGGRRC
Procedure: THP1 or (A) NLRP3 deficient cells (THP1-defNLRP3) cells were plated at a final concentration of 1×10^6/mL in 96 well plates and incubated with PMA (0.5 μM) for 3 hours 37° C. in supplemented RPMI. Media was subsequently changed every 24 hours for 3 days. In brief, selected wells were treated with APC (4 μg/mL), TR47 (50 μM) or P3R (50 μM) for 1 hour, washed with DPBS, and incubated with LPS (1 μg/mL) for 3 hours at 37° C. in serum-free RPMI. After a DPBS wash, cells were incubated with ATP (5 mM) in the presence or absence of 10 μM YVAD (caspase 1 inhibitor) or 2.5 μM ZVAD (pan-caspase inhibitor) for 45 minutes at 37° C. […] Again, cells were washed with DPBS and incubated with ATP (5 mM) in the presence or absence of 10 μM YVAD (caspase 1 inhibitor) or 2.5 μM ZVAD (pan-caspase inhibitor) for 45 minutes prior to performing the caspase 1 activity following manufacturer's directions measuring luminescence. […] After a DPBS wash, cells were incubated with ATP (5 mM) in the presence or absence of 10 μM YVAD (caspase 1 inhibitor) or 2.5 μM ZVAD (pan-caspase inhibitor) for 45 minutes at 37° C., prior to performing the caspase 1 activity assay following manufacturer's directions measuring luminescence (relative luminescent units, RLU). […]

PAR1 = target: T2, PAR1 (Homo sapiens, UniProt P25116); test: Caspase 1 activity assay in THP1 cells after inhibition of PAR1 (WEDE15, ATAP2, SCH79797); type: cell-based; conditions: TR47 50 μM or P3R 50 μM; for effect of PAR1 blocking antibody ATAP2 on reduction of caspase 1 activity: ATAP2 10 μg/mL for 15 minutes before APC 4 μg/mL; for effect of PAR1 small molecule antagonist SCH79797 on reduction of caspase 1 activity: SCH79797 20 μM for 20 minutes before APC 4 μg/mL; for effect of PAR1 blocking antibody WEDE15 on reduction of caspase 1 activity: WEDE15 20 μg/mL for 15 minutes before APC 4 μg/mL
T2 construct: endogenous in cells; host or cells: THP1-null (wildtype) cells, PMA-differentiated
T2 sequence (P25116 22-425): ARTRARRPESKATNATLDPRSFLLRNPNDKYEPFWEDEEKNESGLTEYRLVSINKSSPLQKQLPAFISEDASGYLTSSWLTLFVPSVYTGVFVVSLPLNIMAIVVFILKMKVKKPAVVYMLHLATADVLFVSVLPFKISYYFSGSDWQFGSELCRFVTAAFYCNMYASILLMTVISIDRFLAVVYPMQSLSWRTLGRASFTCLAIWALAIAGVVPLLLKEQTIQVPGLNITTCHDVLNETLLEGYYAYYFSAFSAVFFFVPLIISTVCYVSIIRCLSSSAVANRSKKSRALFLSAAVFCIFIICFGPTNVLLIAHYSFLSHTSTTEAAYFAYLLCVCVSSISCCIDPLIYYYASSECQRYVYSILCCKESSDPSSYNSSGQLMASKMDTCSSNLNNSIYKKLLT
Procedure: THP1 or (A) NLRP3 deficient cells (THP1-defNLRP3) cells were plated at a final concentration of 1×10^6/mL in 96 well plates and incubated with PMA (0.5 μM) for 3 hours 37° C. in supplemented RPMI. Media was subsequently changed every 24 hours for 3 days. In brief, selected wells were treated with APC (4 μg/mL), TR47 (50 μM) or P3R (50 μM) for 1 hour, washed with DPBS, and incubated with LPS (1 μg/mL) for 3 hours at 37° C. in serum-free RPMI. After a DPBS wash, cells were incubated with ATP (5 mM) in the presence or absence of 10 μM YVAD (caspase 1 inhibitor) or 2.5 μM ZVAD (pan-caspase inhibitor) for 45 minutes at 37° C. In (B), after PMA differentiation, select wells were treated with APC (4 μg/mL), TR47 (50 μM) or P3R (50 μM) for 1 hour, washed with DPBS, and incubated with LPS (1 μg/mL) for 3 hours at 37° C. in serum-free RPMI. Cells were washed with DPBS before being treated with the NLRP3 inhibitor MCC950 (10 μM) or DMSO for 30 minutes. Again, cells were washed with DPBS and incubated with ATP (5 mM) in the presence or absence of 10 μM YVAD (caspase 1 inhibitor) or 2.5 μM ZVAD (pan-caspase inhibitor) for 45 minutes prior to performing the caspase 1 activity following manufacturer's directions measuring luminescence. In (C-F) prior to APC, TR47 or P3R treatment, cells were incubated with antibodies or inhibitors. In (C) cell were incubated with the blocking EPCR antibody, RCR-252 (50 μg/mL); (D) mouse monoclonal antibody to PAR3, clone 19b (clonel9b; 25 μg/mL) for 30 minutes. In (E) cells were treated with either mouse monoclonal antibodies to PAR1, WEDE15 (20 μg/mL) or ATAP2 (10 μg/mL) for 15 minutes. In (F) cells were treated with the small molecule PAR1 inhibitor, SCH79797 (SCH; 20 μM) for 20 minutes. Following antibody or small molecule treatments (C-F) selected wells were treated with APC (4 μg/mL), TR47 (50 μM) or P3R (50 μM) for 1 hour, washed with DPBS, and incubated with LPS (1 μg/mL) for 3 hours at 37° C. in serum-free RPMI. After a DPBS wash, cells were incubated with ATP (5 mM) in the presence or absence of 10 μM YVAD (caspase 1 inhibitor) or 2.5 μM ZVAD (pan-caspase inhibitor) for 45 minutes at 37° C., prior to performing the caspase 1 activity assay following manufacturer's directions measuring luminescence (relative luminescent units, RLU). (A-F) Data points represent mean±SD of at least 3 independent experiments. *P<0.05 (vs. LPS+ATP); #P<0.05 (vs. LPS+ATP & APC, TR47 or P3R); ##P<0.005 (vs. LPS+ATP & APC, TR47 or P3R); n.s. not significant.
Caspase 1 assay. THP1-null (wildtype cells) or NLRP3-deficient THP1-(defNLRP3) cells were plated at a final concentration of 1×10^6/mL in 96 well plates and incubated with PMA (0.5 μM) for 3 hours 37° C. in supplemented RPMI. Media was subsequently changed every 24 hours for 3 days. Various subsets of wells were selected and cells were treated for 60 minutes at 37° C. in serum-free RPMI with various concentrations of APC, TR47 or P3R. Following DPBS wash, cells were incubated with LPS (lipopolysaccharide) (1 μg/mL) for 3 hours at 37° C. in serum-free RPMI to prime the inflammasome. After a DPBS wash, to fully activate caspase 1 activity, cells were incubated with ATP (5 mM), in the presence or absence of 10 μM YVAD (caspase 1 inhibitor), and 2.5 μM ZVAD (pan-caspase inhibitor) for 45 minutes at 37° C., prior to performing the caspase 1 activity assay following the manufacturer's (Promega) directions; caspase 1 activity was monitored as luminescence changes due to substrate hydrolysis and reported as relative luminescent units (RLU).^15 In select experiments, caspase 1 activity of experimental conditions were normalized to YVAD (caspase 1 inhibitor) conditions and expressed as normalized caspase 1 activity.

Sequence	effect of blocking EPCR on inhibition of caspase 1 activity (EPCR)	effect of PAR1 blocking antibody ATAP2 on reduction of caspase 1 activity (PAR1)	effect of PAR1 small molecule antagonist SCH79797 on reduction of caspase 1 activity (PAR1)	effect of PAR1 blocking antibody WEDE15 on reduction of caspase 1 activity (PAR1)
GAPPNSFEEFPFSALEGWTGATIT [P3R, PAR3-derived 24-mer peptide]	though trending, did not reach significance	None of the PAR1-targeted inhibitors statistically significantly reduced the anti-inflammatory activity	None of the PAR1-targeted inhibitors statistically significantly reduced the anti-inflammatory activity	None of the PAR1-targeted inhibitors statistically significantly reduced the anti-inflammatory activity
NPNDKYEPFWEDEEKNESGL [TR47, PAR1-derived 20 amino acid peptide]	significant loss in their inhibition of caspase 1 activity	not by ATAP2	inhibited by SCH79797 and WEDE15	inhibited by SCH79797 and WEDE15
